Molecular target: BDC2.5 T cell receptor (transgenic TCR alpha/beta of BDC2.5 TCR Tg mice) (mouse)
Assay: cell-based or functional assay

- fold expansion of antigen-specific cells during the 10 day culture (lowest seeding, 0.001%): 5000 fold
Substance: p31-I-A^g7 multimer (recombinant MHC class II I-A^g7 presenting the BDC2.5 TCR mimotope peptide 1040-31) (peptide-MHC)
